Paper PMC6123492, “Structural and biochemical insights into small RNA 3′ end trimming by Arabidopsis SDN1”
Positions count from the first letter of the chain named.

Assays:
SDN1 TEV [1] = molecular target: T1, SDN1 TEV (Arabidopsis thaliana, UniProt A3KPE8 2-300+=ENLYFQS+301-409, internal_change); assay: UV crosslinking + TEV mapping; RNA on DEDDh (ΔC) fragment; EMSA: 50 mM Tris pH 8.0, 100 mM NaCl, 1 mM DTT, no Mg2+, 2 nM RNA, on ice 30 min, 8% native PAGE in 0.5x TBE; NMR: 50 mM Na2HPO4 pH 7.4, 100 mM NaCl, 10% D2O; conditions: protein: recombinant; tags: His-SUMO tag removed; label: 5' 32P on target strand; unpaired miR166 3' end (T6-type); target 3' overhang 4 nt
T1 sequence: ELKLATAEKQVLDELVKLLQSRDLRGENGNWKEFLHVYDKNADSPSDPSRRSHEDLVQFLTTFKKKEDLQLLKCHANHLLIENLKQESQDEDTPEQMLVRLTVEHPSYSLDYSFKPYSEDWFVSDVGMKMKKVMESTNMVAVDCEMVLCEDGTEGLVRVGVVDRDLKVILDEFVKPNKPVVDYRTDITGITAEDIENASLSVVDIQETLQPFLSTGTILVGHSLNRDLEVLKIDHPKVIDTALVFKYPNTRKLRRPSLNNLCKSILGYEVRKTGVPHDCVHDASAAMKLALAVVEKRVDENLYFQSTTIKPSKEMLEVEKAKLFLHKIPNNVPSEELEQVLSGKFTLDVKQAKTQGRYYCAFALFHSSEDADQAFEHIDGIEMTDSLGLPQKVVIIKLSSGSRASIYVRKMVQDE

SDN1 TEV [2] = molecular target: T1, SDN1 TEV; assay: UV crosslinking + TEV mapping; RNA on RRM fragment; EMSA: 50 mM Tris pH 8.0, 100 mM NaCl, 1 mM DTT, no Mg2+, 2 nM RNA, on ice 30 min, 8% native PAGE in 0.5x TBE; NMR: 50 mM Na2HPO4 pH 7.4, 100 mM NaCl, 10% D2O; conditions: protein: recombinant; tags: His-SUMO tag removed; label: 5' 32P on target strand; unpaired miR166 3' end (T6-type); target 3' overhang 4 nt
SDN1 F356A = molecular target: T2, SDN1 F356A (Arabidopsis thaliana, UniProt A3KPE8 2-409, F356A); assay: EMSA; no Mg2+; not impaired; EMSA: 50 mM Tris pH 8.0, 100 mM NaCl, 1 mM DTT, no Mg2+, 2 nM RNA, on ice 30 min, 8% native PAGE in 0.5x TBE; NMR: 50 mM Na2HPO4 pH 7.4, 100 mM NaCl, 10% D2O; conditions: protein: recombinant; tags: His-SUMO tag removed; label: 5' 32P; single strand
T2 sequence: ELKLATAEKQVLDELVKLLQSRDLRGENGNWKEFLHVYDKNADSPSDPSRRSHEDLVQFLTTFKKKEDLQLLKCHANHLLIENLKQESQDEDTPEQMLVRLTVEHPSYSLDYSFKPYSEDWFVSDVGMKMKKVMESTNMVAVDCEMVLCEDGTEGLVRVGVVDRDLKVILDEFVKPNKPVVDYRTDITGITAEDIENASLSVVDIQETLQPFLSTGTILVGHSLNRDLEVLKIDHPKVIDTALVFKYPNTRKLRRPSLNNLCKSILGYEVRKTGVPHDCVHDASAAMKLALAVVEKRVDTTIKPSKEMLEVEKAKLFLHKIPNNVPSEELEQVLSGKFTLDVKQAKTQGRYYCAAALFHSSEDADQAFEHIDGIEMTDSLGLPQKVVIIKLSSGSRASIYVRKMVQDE

SDN1 Q21A = molecular target: T3, SDN1 Q21A (Arabidopsis thaliana, UniProt A3KPE8 2-409, Q21A); assay: EMSA; not impaired; EMSA: 50 mM Tris pH 8.0, 100 mM NaCl, 1 mM DTT, no Mg2+, 2 nM RNA, on ice 30 min, 8% native PAGE in 0.5x TBE; NMR: 50 mM Na2HPO4 pH 7.4, 100 mM NaCl, 10% D2O; conditions: protein: recombinant; tags: His-SUMO tag removed; label: 5' 32P; single strand
T3 sequence: T2 sequence with Q20A, A355F

SDN1 S22A = molecular target: T4, SDN1 S22A (Arabidopsis thaliana, UniProt A3KPE8 2-409, S22A); assay: as above; conditions: protein: recombinant; tags: His-SUMO tag removed; label: 5' 32P; single strand
T4 sequence: T2 sequence with S21A, A355F

B1: miR166:3'-IUU (dsRNA)
RNA 1: UCGGACCAGGCUUCAUCCCCC
RNA 2: GAUUCCCUUGAAGCUUGGUCCGGAUUA
modifications: 5-iodoU at 25,26 of strand 2
- binding result (SDN1 TEV [1]): binds

B2: miR166:5'-IUU (dsRNA)
RNA 1: UCGGACCAGGCUUCAUCCCCC
RNA 2: GAUUCCCUUGAAGCUUGGUCCGGAUUA
modifications: 5-iodoU at 3,4 of strand 2
- binding result (SDN1 TEV [2]): binds

Binder: UCGGACCAGGCUUCAUCCCCC (ssRNA) [miR166]
- binding result (SDN1 F356A): binds
- binding result (SDN1 Q21A): binds
- binding result (SDN1 S22A): binds
